The source of these data is US20250025561A1, “LIQUID COMPOSITIONS COMPRISING A PHOSPHORYLCHOLINE-TUFTSIN CONJUGATE” (Tarsier Pharma Ltd., priority 2021, published 2025).

A short description of data set [1]: Chemical stability of the synthesized conjugates. The class given is physicochemical. How it is done:
In brief, 50 mg of TRS was dissolved in 2.5 mL of water and 50 equivalents of acetaldehyde were added (at room temperature). Then, the pH was adjusted to 6.8. The solution was shaken over the weekend and analyzed by an analytical HPLC. […] The reaction mixture was purified by a preparative HPLC, to isolate the phosphorylcholine tuftsin conjugate of Formula 3A.
The phosphorylcholine tuftsin conjugate of Formula 3A was dissolved in 0.1% formic acid in water and the pH was adjusted to 2.7. After 30 min, the solution was lyophilized. The crude reaction mixture was purified by preparative HPLC to obtain the phosphorylcholine tuftsin conjugate of Formula 2A.

Data set [2] can be described thus: Biological activity (test not specified).
Another data set concerns yeasts (S. cerevisiae). The data set is described as follows: Yeast fermentation activity (gas formation) in aqueous suspension with sucrose. The class given is cell-based. The note with it: FIG. 2. How it is done: Yeast fermentation activity was correlated to the formation of bubbles within the aqueous suspension.
In brief, varying amount of 1% w/w solution of TRS was added to an aqueous suspension containing yeasts (S. cerevisiae) and a sufficient amount of sucrose, to obtain aqueous compositions containing 4 ppm, 20 ppm, 40 ppm, and 80 ppm of TRS. The gas formation (fermentation activity) of the aqueous suspension with TRS (hereinafter, “the sample”) was quantified by evaluating the volume of the released gas and compared to a similar aqueous yeast suspension devoid of TRS (hereinafter, “the control”).
Further, the phosphorylcholine tuftsin conjugate (PC) of Formula 2A synthesized as disclosed herein, has been tested to evaluate its antifungal activity. The inventors performed a similar experiment, as disclosed above, using varying concentrations of the phosphorylcholine tuftsin conjugate of Formula 2 (i.e. 6.7 ppm, 20 ppm, 40 ppm, and 80 ppm).

A short description of data set [3]: Solubility of drug substance in water. The class given is physicochemical. How it is done: Drug Substance [TRS]: is a trifluoroacetate [TFA] salt of phosphorylcholine-tuftsin conjugate represented by Formula 1 (as shown herein). Molecular formula: C43H68N13O13P, Appearance: Yellow to orange solid. Solubility: >40 mg/ml in water.

*1 amine or outer side, *2 acyl side, *3 side chain or, on linkers, in order; H or OH if unused. Where a SMILES comes first, the peptide text is derived from it. [ ]: non-standard residue; d: D form. X1 = C[N+](C)(C)CCOP(=O)([O-])Oc1ccc(/N=N/c2cc(C[C@H](N[*:1])C(=O)[*:2])ccc2O)cc1; X2 = C[N+](C)(C)CCOP(=O)(O)Oc1ccc(/N=N\c2cc(CC(N[*:1])C(=O)[*:2])ccc2O)cc1; NMeT = CN[CH](C(=O)O)[CH](C)O

Turning to `CC1NC([C@@H](C)O)C(=O)N1[C@@H](CCCCN)C(=O)N1CCCC1C(=O)N[C@@H](CCCNC(=N)N)CNCC(=O)N[C@@H](Cc1ccc(O)c(/N=N\c2ccc(OP(=O)(O)OCC[N+](C)(C)C)cc2)c1)C(=O)O` (stereo partly shown) [Formula 2A], the chemical stability result in data set [1] is reported as “sufficient chemical stability”. Also, the biological activity entry in data set [2] is given as “solid biological activity”.
As for `CC(O)C1NC(C)N(C(CCCCN)C(=O)N2CCCC2C(=O)NC(CCCNC(=N)N)C(=O)NCC(=O)NC(Cc2ccc(O)c(N=Nc3ccc(OP(=O)(O)OCC[N+](C)(C)C)cc3)c2)C(=O)O)C1=O` (stereo not shown) [Formula 2], the “yeast activity vs control” value with yeasts (S. cerevisiae) (80 ppm) is “almost completely eliminated”; in the data set on yeasts (S. cerevisiae) (lowest concentration of about 7 ppm (6.7 ppm)), “significant reduction of the yeast activity”.
As to `C/C=N/CCCC[C@@H](C(=O)N1CCCC1C(=O)N[C@@H](CCCNC(=N)N)CNCC(=O)N[C@@H](Cc1ccc(O)c(/N=N/c2ccc(OP(=O)(O)OCC[N+](C)(C)C)cc2)c1)C(=O)O)N1C(=O)C([C@@H](C)O)NC1C` (stereo partly shown) [Formula 3A], the “hydrolysis (converted into PC of Formula 2A)” value in data set [1] (at acidic pH) was “undergoes hydrolysis”.
In the case of `CNC(C(=O)NC(CCCCN)C(=O)N1CCCC1C(=O)NC(CCCNC(=N)N)C(=O)NCC(=O)NC(Cc1ccc(O)c(/N=N\c2ccc(OP(=O)(O)OCC[N+](C)(C)C)cc2)c1)C(=O)O)C(C)O` (stereo not shown) [Formula 5] (H-[NMeT]KPRG[X2]-OH; configuration not given here), the “chemical stability as compared to PC of Formula 2” value in data set [1] is listed as “reduced chemical stability”.
The compound `C[C@@H](O)[C@H](N)C(=O)N[C@@H](CCCCN)C(=O)N1CCC[C@H]1C(=O)N[C@@H](CCCNC(=N)N)C(=O)NCC(=O)N[C@@H](Cc1ccc(O)c(/N=N/c2ccc(OP(=O)([O-])OCC[N+](C)(C)C)cc2)c1)C(=O)O` [TRS] (H-TKPRG[X1]-OH) came in with a solubility in data set [3] above 40 mg/mL.

The term solubility denotes the dissolved amount per volume that the medium holds. A low value points to little dissolved substance.
